This note sets out measurements from patent US20260055201A1 (SHENGHE CHINA BIOPHARMACEUTICAL, published 2026).

For test [1], the target named is T1, human TNFR2 on TNFR2-CHO-K1 cells (human, UniProt P20333 23-461).
T1 construct: CHO cells overexpressing human TNFR2 by lentiviral transduction
T1 sequence: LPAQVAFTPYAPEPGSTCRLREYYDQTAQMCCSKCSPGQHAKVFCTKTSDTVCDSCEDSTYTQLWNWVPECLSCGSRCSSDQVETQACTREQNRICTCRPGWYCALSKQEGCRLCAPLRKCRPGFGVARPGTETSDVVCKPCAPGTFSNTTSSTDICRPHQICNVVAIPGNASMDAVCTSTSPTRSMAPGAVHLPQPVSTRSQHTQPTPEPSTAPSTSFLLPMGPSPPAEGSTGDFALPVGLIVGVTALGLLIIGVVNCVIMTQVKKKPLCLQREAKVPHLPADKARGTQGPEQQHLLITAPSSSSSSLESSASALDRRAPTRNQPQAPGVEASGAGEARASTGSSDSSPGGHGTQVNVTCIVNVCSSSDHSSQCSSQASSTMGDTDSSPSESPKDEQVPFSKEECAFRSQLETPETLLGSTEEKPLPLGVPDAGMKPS
In words: flow cytometry on TNFR2-CHO-K1 cells, APC anti-human IgG Fc secondary antibody, Average-APC. As to the method: The purified antibodies were diluted to 120 nM with FACS buffer, using this as the starting concentration, and then diluted by 6-fold gradient (7 gradients in total). […] The cells were incubated at 4° C. for 60 min, then washed twice with excess FACS buffer. Resuspended the cells in 100 μL FACS buffer and added fluorescent secondary antibody APC (Biolegend, Cat: 109306) against human IgG FC to the sample. It was incubated for 30 min and washed twice with excess FACS buffer. Resuspended the cells in flow buffer and then detected and analyzed using a flow cytometer.

Test [2] concerns the target T2, human CCR8 on CCR8-CHO-K1 cells (human, UniProt P51685 1-355).
T2 construct: CHO cells overexpressing human CCR8 by lentiviral transduction
Briefly: flow cytometry on CCR8-CHO-K1 cells, APC anti-human IgG Fc secondary antibody, Average-APC. As to the method:
The purified antibodies were diluted to 120 nM with FACS buffer, using this as the starting concentration, and then diluted by 5-fold gradient (6 gradients in total). […] The cells were incubated at 4° C. for 60 min, then washed twice with excess FACS buffer. Resuspended the cells in 100 μL FACS Buffer and Added Fluorescent Secondary antibody APC (Biolegend, Cat: 109306) against human IgG FC to the sample. It was incubated for 30 min and washed twice with excess FACS buffer. Resuspended the cells in flow buffer and then detected and analyzed using a flow cytometer.

Test [3] concerns the target T3, Human TNFR2 His (manufacturer: SINO, CAT: 10417-H08H) (human, UniProt P20333 23-257).
T3 construct: Bought protein; also called human TNFR2 protein; TNFR2 protein; not shown: His tag
T3 sequence (looked up): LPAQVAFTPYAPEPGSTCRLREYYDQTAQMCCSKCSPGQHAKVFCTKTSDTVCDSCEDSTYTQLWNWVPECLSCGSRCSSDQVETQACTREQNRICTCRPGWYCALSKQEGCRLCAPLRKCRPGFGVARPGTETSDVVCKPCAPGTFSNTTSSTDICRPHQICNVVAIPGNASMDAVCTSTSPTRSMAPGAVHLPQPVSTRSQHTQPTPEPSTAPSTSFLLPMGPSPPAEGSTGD
In words: bridging flow cytometry: antibody on CCR8-CHO-K1 cells captures human TNFR2 His, FITC anti-His (PBS background 15212). As to the method: The cells after adding the sample were incubated at 4° C. for 60 min, and then washed twice with excess FACS buffer. Resuspended the cells in 100 μL FACS buffer and added FITC anti His tag (Abcam, Cat: ab1206) fluorescent secondary antibody carrying FITC to the sample. It was incubated for 30 min and washed twice with excess FACS buffer. Resuspended the cells in flow buffer and then detected and analyzed using a flow cytometer.

Test [4] concerns the target T4, Human TNFR2 mFc (manufacturer: Kaixia, CAT: TN-HM3R2) (human, UniProt P20333 23-257).
T4 construct: treated as one molecule; also called Human TNFR2 mFC (KaKa, CAT: TNF-HM3R2); human TNFR2 mFC protein; not shown: mFc part
T4 sequence (looked up): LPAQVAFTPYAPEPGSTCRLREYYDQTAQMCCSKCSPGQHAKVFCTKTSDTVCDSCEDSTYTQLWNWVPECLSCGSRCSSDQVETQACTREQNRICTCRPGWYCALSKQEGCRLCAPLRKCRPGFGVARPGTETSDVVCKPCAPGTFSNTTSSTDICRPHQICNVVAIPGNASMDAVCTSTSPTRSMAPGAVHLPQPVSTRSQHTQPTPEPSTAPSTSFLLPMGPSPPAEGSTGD
In words: blocking ELISA: human TNFR2 mFc coated, antibody titrated together with human TNF alpha His (blocked ligand), anti-His detection, OD450. As to the method:
The coating solution was poured off. Each well was washed with 1×PBST at 300 μL, washed 4 times with a plate washer, and patted dry on a flat paper. It was blocked with 3% skim milk powder at 300 μL/well, and incubated at 37° C. for 1 h. The blocking solution was poured off, washed 4 times with a plate washer, and patted dry on a flat paper. Negative control and positive control were set up. […] The positive control and antibody were diluted diluted to 100 nM with 3% skim milk powder as the starting concentration, and then diluted by 3-fold gradient (11 gradients in total), and a blank well was set up and only the diluent was added. […] The liquid in the well was discarded, washed 4 times with a plate washer, and patted dry on a flat paper. The anti his antibody (Abcam, Cat: ab1187) was diluted with 3% skim milk powder at 1:5000, 100 μL was added to each well, and incubated at 37° C. for 1 h. It was washed 6 times with a plate washer, and patted dry on a flat paper. TMB color developing solution was added at 100 μL/well, and wrapped with aluminum foil. Color development was performed at 37° C. in the dark for 8 min. Termination solution 1M HCl was added to terminate the color development reaction at 100 μL/well. Readings were taken at 450 nm on an ELISA reader.

B1: anti-TNFR2 control antibody (SEQ ID NO: 52 and SEQ ID NO: 53, constant region of human IgG1 SEQ ID NO: 54 and SEQ ID NO: 55) (antibody, V domains shown)
VH: EVQLVQSGAEVKKPGATVKISCKVSGYSITDYLLHWVQQAPGKGLEWMGWIDPEDAKTKYGQKFQSRVTITADTSTDTAYMELSSLRSEDTAVYYCAANSGTGTMDAWGQGTLVTVSS
VL: DIVMTQSPATLSVSPGERATLSCKASQNVGSNVDWYQQKPGQSPRVLIYKASIRYTGIPARFSGSGSGTEFTLTISILQSEDFAVYFCMQSKSYPITFGQGTKLEIKR
notes: also called positive control 1
Regarding B1, the “EC50 (read off the curve)” value in test [1] was roughly 0.3 nM.

B2: TR-F (bispecific antibody, human IgG1, kappa)
light: EVQLVQSGAEVKKPGATVKISCKVSGYSITDYLLHWVQQAPGKCLEWMGWIDPEDAKTKYGQKFQSRVTITADTSTDTAYMELSSLRSEDTAVYYCAANSGTGTMDAWGQGTLVTVSSGGGGSGGGGSGGGGSDIVMTQSPATLSVSPGERATLSCKASQNVGSNVDWYQQKPGQSPRVLIYKASIRYTGIPARFSGSGSGTEFTLTISILQSEDFAVYFCMQSKSYPITFGCGTKLEIKGGGGSGGGGSGGGGSDIVMTQSPPTLSLSPGERATLSCRSSKSLLHSNGNTYLYWFQQKPGQSPQLLIYRMSNLASGIPDRFSGSGSGTDFTLTISRLEPEDFAVYYCMQHLEYPFTFGQGTKLEIKRTVAAPSVFIFPPSDEQLKSGTASVVCLLNNFYPREAKVQWKVDNALQSGNSQESVTEQDSKDSTYSLSSTLTLSKADYEKHKVYACEVTHQGLSSPVTKSFNRGEC
heavy: not shown
notes: also called antibody TR-F
As to B2, the binding result in test [2] is “binds”. Further, the “EC50 (read off the curve)” value in test [1] was roughly 0.5 nM. The “Average FITC-A” value in test [3] was determined as 27600.

B3: anti-CCR8 control antibody (variable region SEQ ID NO: 9 and SEQ ID NO: 13, constant region of human IgG1 SEQ ID NO: 54 and SEQ ID NO: 55) (antibody, V domains shown)
VH: EVQLVESGGGLVQPGGSLRLSCAASGFTFNTNAMNWVRQAPGKGLEWVGRIRTKSNNYATYYAESVRDRFTISRDDSKNSLYLQMNSLKTEDTAMYYCVRGGYGIRGEYTMDYWGQGTLVTVSS
VL: DIVMTQSPPTLSLSPGERATLSCRSSKSLLHSNGNTYLYWFQQKPGQSPQLLIYRMSNLASGIPDRFSGSGSGTDFTLTISRLEPEDFAVYYCMQHLEYPFTFGQGTKLEIKR
With B3, in test [2], the “EC50 (read off the curve)” value was roughly 0.3 nM.

B4: TR-A (bispecific antibody, human IgG1, kappa)
light: DIVMTQSPPTLSLSPGERATLSCRSSKSLLHSNGNTYLYWFQQKPGQSPQLLIYRMSNLASGIPDRFSGSGSGTDFTLTISRLEPEDFAVYYCMQHLEYPFTFGQGTKLEIKRTVAAPSVFIFPPSDEQLKSGTASVVCLLNNFYPREAKVQWKVDNALQSGNSQESVTEQDSKDSTYSLSSTLTLSKADYEKHKVYACEVTHQGLSSPVTKSFNRGEC
heavy: not shown
notes: also called antibody TR-A
For B4, the binding result in test [2] was “binds”. For the same molecule, the “Average FITC-A” value in test [3] worked out at 40000.

B5: TR-C (bispecific antibody, human IgG1, kappa)
light: DIVMTQSPPTLSLSPGERATLSCRSSKSLLHSNGNTYLYWFQQKPGQSPQLLIYRMSNLASGIPDRFSGSGSGTDFTLTISRLEPEDFAVYYCMQHLEYPFTFGQGTKLEIKRTVAAPSVFIFPPSDEQLKSGTASVVCLLNNFYPREAKVQWKVDNALQSGNSQESVTEQDSKDSTYSLSSTLTLSKADYEKHKVYACEVTHQGLSSPVTKSFNRGEC
heavy: not shown
notes: also called antibody TR-C
Turning to B5, the “EC50 (read off the curve)” value in test [2] is roughly 1 nM. Moreover, the “Average FITC-A” value in test [3] is 89500.

B6: TR-B (bispecific antibody, human IgG1, kappa)
light: DIVMTQSPPTLSLSPGERATLSCRSSKSLLHSNGNTYLYWFQQKPGQSPQLLIYRMSNLASGIPDRFSGSGSGTDFTLTISRLEPEDFAVYYCMQHLEYPFTFGQGTKLEIKRTVAAPSVFIFPPSDEQLKSGTASVVCLLNNFYPREAKVQWKVDNALQSGNSQESVTEQDSKDSTYSLSSTLTLSKADYEKHKVYACEVTHQGLSSPVTKSFNRGEC
heavy: not shown
notes: also called antibody TR-B
Take B6: in test [2], the binding result is given as “binds”. Besides, the “Average FITC-A” value in test [3] was found to be 29000.

B7: TR-D (bispecific antibody, human IgG1, kappa)
light: DIVMTQSPPTLSLSPGERATLSCRSSKSLLHSNGNTYLYWFQQKPGQSPQLLIYRMSNLASGIPDRFSGSGSGTDFTLTISRLEPEDFAVYYCMQHLEYPFTFGQGTKLEIKRTVAAPSVFIFPPSDEQLKSGTASVVCLLNNFYPREAKVQWKVDNALQSGNSQESVTEQDSKDSTYSLSSTLTLSKADYEKHKVYACEVTHQGLSSPVTKSFNRGEC
heavy: not shown
notes: also called antibody TR-D
For B7, in test [2], the binding result is “binds”. In test [1], the “EC50 (read off the curve)” value is roughly 0.1 nM. Moreover, the “Average FITC-A” value in test [3] was 30300. The “IC50 (read off the curve)” value in test [4] is roughly 2 nM.

B8: TR-G (bispecific antibody, human IgG1, kappa)
light: DIVMTQSPPTLSLSPGERATLSCRSSKSLLHSNGNTYLYWFQQKPGQSPQLLIYRMSNLASGIPDRFSGSGSGTDFTLTISRLEPEDFAVYYCMQHLEYPFTFGQGTKLEIKRTVAAPSVFIFPPSDEQLKSGTASVVCLLNNFYPREAKVQWKVDNALQSGNSQESVTEQDSKDSTYSLSSTLTLSKADYEKHKVYACEVTHQGLSSPVTKSFNRGECGGGGSGGGGSEVQLVESGGGLVQPGGSLRLSCAASGSRLDYYAVAWFRQAPGKEREEVSCITYSGGSTNYAESVKGRFTISRDNSKNTLYLQMNSLRAEDTAVYYCTTEPYGSSCPLSGYDTWGQGTLVTVSS
heavy: not shown
notes: also called antibody TR-G
With B8, the “EC50 (read off the curve)” value is roughly 0.9 nM in test [2] and roughly 1 nM in test [1]. In addition, the “Average FITC-A” value in test [3] came out at 33700.

B9: TR-E (bispecific antibody, human IgG1, kappa)
light: DIVMTQSPPTLSLSPGERATLSCRSSKSLLHSNGNTYLYWFQQKPGQSPQLLIYRMSNLASGIPDRFSGSGSGTDFTLTISRLEPEDFAVYYCMQHLEYPFTFGQGTKLEIKRTVAAPSVFIFPPSDEQLKSGTASVVCLLNNFYPREAKVQWKVDNALQSGNSQESVTEQDSKDSTYSLSSTLTLSKADYEKHKVYACEVTHQGLSSPVTKSFNRGECGGGGSGGGGSEVQLVQSGAEVKKPGATVKISCKVSGYSITDYLLHWVQQAPGKCLEWMGWIDPEDAKTKYGQKFQSRVTITADTSTDTAYMELSSLRSEDTAVYYCAANSGTGTMDAWGQGTLVTVSSGGGGSGGGGSGGGGSDIVMTQSPATLSVSPGERATLSCKASQNVGSNVDWYQQKPGQSPRVLIYKASIRYTGIPARFSGSGSGTEFTLTISILQSEDFAVYFCMQSKSYPITFGCGTKLEIK
heavy: not shown
notes: also called antibody TR-E
For the molecule B9, in test [2], the “EC50 (read off the curve)” value is roughly 1 nM. Moreover, the “Average FITC-A” value in test [3] amounted to 61900.
